One series deals with T1, human CYP1A1 (Homo sapiens, UniProt P04798).
T1 construct: purchased BD Biosciences Discovery Labware (Woburn, MA, USA); host or cells: baculovirus-insect cells
T1 sequence (P04798 1-512): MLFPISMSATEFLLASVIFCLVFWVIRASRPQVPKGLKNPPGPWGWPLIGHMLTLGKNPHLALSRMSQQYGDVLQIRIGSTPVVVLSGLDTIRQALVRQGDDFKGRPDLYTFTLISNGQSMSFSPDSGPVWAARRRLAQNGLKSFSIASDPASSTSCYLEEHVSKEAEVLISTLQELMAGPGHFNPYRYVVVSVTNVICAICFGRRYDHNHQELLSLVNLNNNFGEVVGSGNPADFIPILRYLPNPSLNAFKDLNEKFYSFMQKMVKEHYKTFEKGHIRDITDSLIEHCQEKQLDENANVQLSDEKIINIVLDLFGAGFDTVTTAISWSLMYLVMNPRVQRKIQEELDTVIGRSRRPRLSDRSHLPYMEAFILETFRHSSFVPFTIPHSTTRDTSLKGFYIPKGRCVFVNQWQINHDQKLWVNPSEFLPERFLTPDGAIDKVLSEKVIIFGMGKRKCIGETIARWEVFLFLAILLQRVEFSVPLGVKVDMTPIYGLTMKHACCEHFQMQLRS
The series can be described thus: Michaelis–Menten kinetics of oxidation to fluorescent 7-hydroxy metabolite by recombinant CYP1A1. It counts as biochemical. The settings on record: recombinant CYP1A1, surrogate standard; 95% confidence interval in brackets. Here is the method:
(§1) Baculovirus-insect cell-expressed human CYP1A1, CYP1A2, CYP1B1, CYP2A6, CYP2B6, CYP2C8, CYP2C9, CYP2C19, CYP2D6, CYP2E1, CYP3A4, CYP3A5, and CYP3A7 were purchased from BD Biosciences Discovery Labware (Woburn, MA, USA) and used according to the manufacturer’s instructions.
(§2) The kinetic assays were carried out in 100 μL volume containing 100 mM Tris-HCl buffer pH 7.4, 0–40 μM coumarin derivative or 0–10 μM 7-ethoxyresorufin, 1–25 nM recombinant CYP or 0–0.1 g/L microsomal protein, and 20% NADPH regenerating system. Incubations took place at 37 °C in 96-multiwell plates; the fluorescence was measured with a Victor[2] plate reader (PerkinElmer Life Sciences, Turku, Finland). The detailed conditions are described in the figures and tables. The reaction was started by adding NADPH, and fluorescence was measured at 2 min intervals for 40 min using excitation at 405 nm and emission at 460 nm for oxidation of coumarin derivatives[18] and excitation at 570 nm and emission at 615 nm for ethoxyresorufin or pentoxyresorufin 7-O-dealkylations. Incubations without the substrate, enzyme, or NADPH were used as blank reactions. Resorufin was used as a standard, and 3-(4-fluorophenyl)-7-hydroxycoumarin was used as the surrogate standards to calculate the amount of product formed. The linear phase of the reactions was used for calculations.
(§3) Enzyme kinetic parameters were analyzed using the nonlinear Michaelis–Menten equation v = Vmax × S/(Km + S), in which v is the rate for 7-hydroxylation of a coumarin derivative, S is its concentration, and Vmax value is the limiting rate of the reaction of 7-hydroxylation, which reached a half-maximal rate at a concentration of Km for the substrate.

The next series has as its target T2, CYP1A2 (Homo sapiens, UniProt P05177).
T2 construct: purchased BD Biosciences Discovery Labware (Woburn, MA, USA); host or cells: baculovirus-insect cells
T2 sequence (P05177 1-516): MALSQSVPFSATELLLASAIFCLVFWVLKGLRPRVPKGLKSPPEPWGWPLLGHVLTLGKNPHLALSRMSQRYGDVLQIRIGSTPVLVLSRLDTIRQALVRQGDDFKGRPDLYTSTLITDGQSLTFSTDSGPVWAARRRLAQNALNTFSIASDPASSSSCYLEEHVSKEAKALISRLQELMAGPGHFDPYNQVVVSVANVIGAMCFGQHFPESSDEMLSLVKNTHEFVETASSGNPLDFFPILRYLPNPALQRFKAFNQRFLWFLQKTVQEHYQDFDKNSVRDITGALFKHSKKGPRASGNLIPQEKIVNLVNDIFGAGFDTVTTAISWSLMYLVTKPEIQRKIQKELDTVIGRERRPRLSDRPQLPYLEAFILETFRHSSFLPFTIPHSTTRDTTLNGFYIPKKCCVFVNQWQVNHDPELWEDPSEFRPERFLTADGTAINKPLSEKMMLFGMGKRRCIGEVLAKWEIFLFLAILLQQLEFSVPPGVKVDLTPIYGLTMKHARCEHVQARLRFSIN
Briefly: Michaelis–Menten kinetics of oxidation to fluorescent 7-hydroxy metabolite by recombinant CYP1A2. It counts as biochemical. The note with it: recombinant CYP1A2, surrogate standard; 95% confidence interval in brackets. The method, then:
as §1, §2, §3

Series [1] relates to 13 recombinant human CYP enzymes. Briefly: Oxidation rates by 13 recombinant human CYP enzymes at fixed substrate concentration (Figure 2). It counts as biochemical. The settings on record: 25 nM CYP. The method, then:
as §1, §2
To find out which CYP forms oxidize the 11 novel coumarin derivatives, we determined their oxidation rates to the corresponding 7-hydroxycoumarin metabolites by 13 recombinant human CYP enzymes at a fixed 10 μM substrate concentration (Figure 2). All except 21, 22, and 23 were oxidized faster by one or several CYP1 forms than by the other CYP forms. […] Oxidation rates of the classical CYP substrates 7-ethoxycoumarin, 7-ethoxyresorufin, and 7-pentoxyresorufin were also determined. […] Oxidation of 7-ethoxycoumarin and 7-ethoxyresorufin was 35 and 60 times faster, respectively, than oxidation of 7-pentoxyresorufin. 7-Ethoxyresorufin was oxidized by CYP1A2 and CYP1B1 at 30–40% of the rate of CYP1A1.
Figure 2 Oxidation of the coumarin derivatives and 7-ethoxy- and 7-pentoxyresorufin by 13 human CYP forms. The formation of fluorescent metabolites was determined in incubations containing a 25 nM CYP, a 20% NADPH regenerating system, and a 10 μM coumarin derivative or 1 μM 7-ethoxy/7-pentoxyresorufin in 100 mM Tris-HCl pH 7.4 in the kinetic experimental setup. […] Note the variation in Y-axis scales between subpanels.

Series [2] has as its system human CYP1 enzymes (CYP1A1, CYP1A2, CYP1B1). The series can be described thus: Oxidation efficiency compared across all CYP1 forms (Table 1). It counts as biochemical. The settings on record: based on Table 1. The method, then: as §1, §2, §3
Substrate in series [3]: CC(=O)Oc1ccc(-c2cc3cc(Cl)ccc3oc2=O)cc1
The series can be described thus: Michaelis–Menten kinetics of oxidation to fluorescent 7-hydroxy metabolite by recombinant CYP1B1. The settings on record: other: recombinant CYP1B1, 100 mM Tris-HCl pH 7.4, 37 °C, 95% confidence interval in brackets. It counts as biochemical, human. Here is the method: as §1, §2, §3

Substrate in series [4]: CC(=O)Oc1cccc(-c2cc3cc(Cl)ccc3oc2=O)c1
Described as above. It counts as biochemical, human. The settings on record: other: recombinant CYP1B1, 100 mM Tris-HCl pH 7.4, 37 °C, 95% confidence interval in brackets. Here is the method: as §1, §2, §3

Substrate in series [5]: CCCCCOc1ccc2nc3ccc(=O)cc-3oc2c1
The description is as above. It counts as biochemical, human. The note with it: other: recombinant CYP1B1, 100 mM Tris-HCl pH 7.4, 37 °C, 95% confidence interval in brackets. The method, then:
as §1, §2, §3

Substrate in series [6]: CCOc1ccc2ccc(=O)oc2c1
The description is as above. It counts as biochemical, human. The note with it: other: recombinant CYP1B1, 100 mM Tris-HCl pH 7.4, 37 °C, 95% confidence interval in brackets. The method, then:
as §1, §2, §3

Substrate in series [7]: CCOc1ccc2nc3ccc(=O)cc-3oc2c1
The description is as above. It counts as biochemical, human. The note with it: other: recombinant CYP1B1, 100 mM Tris-HCl pH 7.4, 37 °C, 95% confidence interval in brackets. Here is the method:
as §1, §2, §3

Substrate in series [8]: COc1cccc(-c2cc3cc(OC)ccc3oc2=O)c1
Described as above. The note with it: other: recombinant CYP1B1, 100 mM Tris-HCl pH 7.4, 37 °C, 95% confidence interval in brackets. It counts as biochemical, human. The method, then: as §1, §2, §3

Substrate in series [9]: O=c1oc2ccc(O)cc2cc1-c1cccc(O)c1
The description is as above. It counts as biochemical, human. The note with it: other: recombinant CYP1B1, 100 mM Tris-HCl pH 7.4, 37 °C, 95% confidence interval in brackets. Here is the method:
as §1, §2, §3

As for `CCCCCOc1ccc2nc3ccc(=O)cc-3oc2c1` [Compound 26, 7-pentoxyresorufin, reference compound], the Vmax on human CYP1A1 was 1.35 mol/(min·mol CYP); on CYP1A2, 0.25 mol/(min·mol CYP). The “CYP1 form oxidizing the substrate fastest” value in series [1] (10 μM coumarin derivative or 1 μM 7-ethoxy/7-pentoxyresorufin) was “oxidized faster by CYP1A1 than the other CYP1 enzymes”. Also, in [1] (fixed substrate concentration), the “fluorescence change and rate of the oxidation” value is reported as “lowest”. In series [2], the “substrate efficiency compared among CYP1 enzymes” value is “efficient substrates for CYP1A1 compared with CYP1A2 and CYP1B1”.

B1: human CYP1B1 (Homo sapiens) (protein)
chain: MGTSLSPNDPWPLNPLSIQQTTLLLLLSVLATVHVGQRLLRQRRRQLRSAPPGPFAWPLIGNAAAVGQAAHLSFARLARRYGDVFQIRLGSCPIVVLNGERAIHQALVQQGSAFADRPAFASFRVVSGGRSMAFGHYSEHWKVQRRAAHSMMRNFFTRQPRSRQVLEGHVLSEARELVALLVRGSADGAFLDPRPLTVVAVANVMSAVCFGCRYSHDDPEFRELLSHNEEFGRTVGAGSLVDVMPWLQYFPNPVRTVFREFEQLNRNFSNFILDKFLRHCESLRPGAAPRDMMDAFILSAEKKAAGDSHGGGARLDLENVPATITDIFGASQDTLSTALQWLLLLFTRYPDVQTRVQAELDQVVGRDRLPCMGDQPNLPYVLAFLYEAMRFSSFVPVTIPHATTANTSVLGYHIPKDTVVFVNQWSVNHDPLKWPNPENFDPARFLDKDGLINKDLTSRVMIFSVGKRRCIGEELSKMQLFLFISILAHQCDFRANPNEPAKMNFSYGLTIKPKSFKVNVTLRESMELLDSAVQNLQAKETCQ
notes: purchased BD Biosciences Discovery Labware (Woburn, MA, USA); host or cells: baculovirus-insect cells
Take B1: the Km is reported as 0.095 (0.04–0.15) μM in [3]; 1.1 (0.5–1.7) μM in series [4]; 2.59 (1.65–3.53) μM in [5]; 120 (0–282) μM in series [6]; 0.096 (0.072–0.119) μM in [7]; 0.43 (0.24–0.61) μM in series [8]. Further, in series [9], the Km is 0.53 (0–1.1) μM. Further, the kcat in series [3] was 5.1 (4.7–5.5) mol/(min·mol CYP); in series [4], 1.1 (0.96–1.2) mol/(min·mol CYP); in series [5], 0.37 (0.28–0.46) mol/(min·mol CYP); in series [6] it was 1.75 (0–3.54) mol/(min·mol CYP); in series [7] it was 3.3 (3.0–3.6) mol/(min·mol CYP); in series [8], 9.3 (8.2–10.4) mol/(min·mol CYP). For the same molecule, the kcat in [9] is on record as 0.29 (0.25–0.34) mol/(min·mol CYP).
